{
  "source": "patent US20100256040A1",
  "about": "(priority 2001, published 2010)",
  "molecular_target": "T1, interaction between GST-p6 and myc-Tsg101(1-207) (Homo sapiens, UniProt Q99816)",
  "T1 construct": "myc-tagged Tsg101 (residues 1-207); made in house; host or cells: Drosophila S2 cells, with Tsg101 used as crude cell lysate",
  "T1 sequence (Q99816 1-207)": "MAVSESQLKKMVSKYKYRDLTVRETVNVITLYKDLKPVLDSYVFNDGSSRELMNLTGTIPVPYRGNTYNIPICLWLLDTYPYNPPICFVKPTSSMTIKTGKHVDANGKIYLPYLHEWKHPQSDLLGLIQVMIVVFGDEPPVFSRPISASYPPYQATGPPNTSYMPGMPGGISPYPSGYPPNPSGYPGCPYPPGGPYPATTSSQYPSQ",
  "assay": "Competitive inhibition of GST-p6 : myc-Tsg101(1-207) binding on plates (fluorescence detection)",
  "conditions": "competitive inhibition curve, FIG. 1",
  "description": "A fusion protein with a GST tag fused to the HIV-1 GAGp6 domain was recombinantly expressed and purified by chromatography. In addition, a GAGp6 peptide containing the first 14 amino acid residues (“p6(1-14)”) was synthesized chemically by standard peptide synthesis methods. The peptide was purified by conventional protein purification techniques, e.g., by chromatography.\nNunc/Nalgene Maxisorp plates were incubated overnight at 4° C. or for 1-2 hrs at room temperature in 100 μl of a protein coupling solution containing purified GST-p6 and 50 mM Carbonate, pH=9.6. This allowed the attachment of the GST-p6 fusion protein to the plates. Liquids in the plates were then emptied and wells filled with 400 μl/well of a blocking buffer (SuperBlock; Pierce-Endogen, Rockford, Ill.). […]\nPlates were then washed 4×100 μl with 1×PBST solution (Invitrogen; Carlsbad, Calif.). […] Plates were then read on a Packard Fusion instrument at an excitation wavelength of 325 nm and an emission wavelength of 420 nm. […]\nDifferent concentrations of the p6(1-14) peptide were tested, and the relative intensities of the fluorescence signals obtained at different concentrations were plotted against the peptide concentrations. […]",
  "data": [
    {"substance": "p6(1-14): chemically synthesized GAGp6 peptide containing the first 14 amino acid residues (LQSRPEPTAPPEES)", "values": [
      {"measurement": "inhibition of protein-protein interaction between GST-p6 and myc-Tsg101(1-207)", "result": "capable of inhibiting protein-protein interaction"}
    ]}
  ]
}
